Values of other authors, collected in patent US11878064B2, “Nanoparticle/peptide method of blocking potassium channels” (US Department of the Navy, priority 2019, dated 2024).
Where no end group is shown, it is not given here.

Molecular target: T1, ROMK1 channels (Homo sapiens, UniProt P48048)
T1 sequence (P48048 1-391): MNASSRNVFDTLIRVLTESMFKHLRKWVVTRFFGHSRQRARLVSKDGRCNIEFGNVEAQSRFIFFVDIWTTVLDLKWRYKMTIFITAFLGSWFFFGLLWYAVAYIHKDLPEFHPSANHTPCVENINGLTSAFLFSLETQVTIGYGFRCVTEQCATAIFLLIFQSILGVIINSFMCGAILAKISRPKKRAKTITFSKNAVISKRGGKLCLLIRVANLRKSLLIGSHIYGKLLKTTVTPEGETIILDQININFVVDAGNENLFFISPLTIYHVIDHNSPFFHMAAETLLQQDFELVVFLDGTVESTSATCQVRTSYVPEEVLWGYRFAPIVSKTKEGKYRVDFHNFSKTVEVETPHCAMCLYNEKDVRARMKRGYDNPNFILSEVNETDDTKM
Conditions: read-out: binding affinity

## tertiapin (ALCNCNRIIIPHMCWKKCGKK; ends and bridges not checked; cysteine pairing not given here; UniProt P56587 1-21, looked up) [TPN]
  Kd: ~2 nM
